Molecular target: Rvs167 (1-265)/161 heterodimer (S. cerevisiae, UniProt P39743 1-265; P25343 1-265)
Experiment: liposome flotation

B1: GST-Cmd1 (natural protein)
chain: not shown
  stoichiometry N: ~0.25 calmodulin per heterodimer
